This is an account of results in patent US20150299255A1 (SUSAVION BIOSCIENCES, published 2015).

Where no end group is shown, it is not given here.

The target in test [1] is T1, receptor NKG2D (UniProt P26718 80-216).
T1 sequence (looked up): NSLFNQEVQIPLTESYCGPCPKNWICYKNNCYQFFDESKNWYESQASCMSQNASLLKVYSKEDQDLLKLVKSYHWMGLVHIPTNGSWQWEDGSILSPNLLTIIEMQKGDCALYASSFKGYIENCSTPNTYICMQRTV
The test can be described thus: isothermal microcalorimetry; SVH1C (100 µM) titrated into NKG2D (11 µM monomer).

Test [2] deals with T1, receptor NKG2D. The test can be described thus: isothermal microcalorimetry; NKG2D concentration entered as monomeric binding sites.
The target of test [3] is T2, lectin MAA from Maackia amurensis (Maackia amurensis).
T2 construct: Plant lectin; peroxidase-conjugated in the solid-phase assays
T2 sequence (P0DKL3 30-278): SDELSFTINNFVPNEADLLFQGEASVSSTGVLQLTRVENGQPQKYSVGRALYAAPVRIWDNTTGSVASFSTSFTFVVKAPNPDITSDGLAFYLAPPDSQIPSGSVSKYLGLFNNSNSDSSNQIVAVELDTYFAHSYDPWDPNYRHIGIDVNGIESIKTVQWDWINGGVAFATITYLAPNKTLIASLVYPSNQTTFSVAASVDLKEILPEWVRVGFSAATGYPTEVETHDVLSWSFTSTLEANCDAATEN
Put plainly: solid-phase competition; fetuin at one-third, equal or 5-fold the molar concentration of peptide; MAA.

B1: SVH1C ([NPSHPLSGGGGS]4K3-NH2) (peptide)
peptide: NPSHPLSGGGGS
chain: Lys-Lys-Lys-NH2
modifications: also: four copies of chain 1 bound by their C-termini to the four amino groups of the branched tri-lysine core
notes: also called quadravalent SVH1C; lead peptide
The Kd is the free concentration of one partner at which half of the binding sites on the other are occupied at equilibrium, for simple one-to-one binding. As to B1, in the test with receptor NKG2D [1], the Ka was determined as 1.7e+06 M⁻¹ and the Kd worked out at 600 nM. In addition, the “stoichiometry, n” value with receptor NKG2D [2] came out at 0.71.

B2: fetuin (other, UniProt P12763 19-359, looked up)
chain: IPLDPVAGYKEPACDDPDTEQAALAAVDYINKHLPRGYKHTLNQIDSVKVWPRRPTGEVYDIEIDTLETTCHVLDPTPLANCSVRQQTQHAVEGDCDIHVLKQDGQFSVLFTKCDSSPDSAEDVRKLCPDCPLLAPLNDSRVVHAVEVALATFNAESNGSYLQLVEISRAQFVPLPVSVSVEFAVAATDCIAKEVVDPTKCNLLAEKQYGFCKGSVIQKALGGEDVRVTCTLFQTQPVIPQPQPDGAEAEAPSAVPDAAGPTPSAAGPPVASVVVGPSVVAVPLPLHRAHYDLRHTFSGVASVESSSGEAFHVGKTPIVGQPSIPGGPVRLCPGRIRYFKI
modifications: 12 to 15 oligosaccharides terminating predominantly as Neu5Ac-Gal on three N-linked and three O-linked glycans
notes: acts through its sialylated glycans; also called glycoprotein fetuin; sialylated protein, fetuin
With B2, the “percent inhibition of SVH1C binding at a 5-fold molar excess of fetuin” value in test [3] came to 90%.
